B1: purified mouse MEKK2 (protein)
chain: MDDQQALNSIMQDLAVLHKASRPALSLQETRKAKPSSPKKQNDVRVKFEHRGEKRILQVTRPVKLEDLRSKSKIAFGQSMDLHYTNNELVIPLTTQDDLDKAVELLDRSIHMKSLKILLVVNGSTQATNLEPSPSPEDLNNTPLGAERKKRLSVVGPPNRDRSSPPPGYIPDILHQIARNGSFTSINSEGEFIPESMDQMLDPLSLSSPENSGSGSCPSLDSPLDGESYPKSRMPRAQSYPDNHQEFTDYDNPIFEKFGKGGTYPRRYHVSYHHQEYNDGRKTFPRARRTQGTSFRSPVSFSPTDHSLSTSSGSSVFTPEYDDSRIRRRGSDIDNPTLTVTDISPPSRSPRAPTNWRLGKLLGQGAFGRVYLCYDVDTGRELAVKQVQFNPESPETSKEVNALECEIQLLKNLLHERIVQYYGCLRDPQEKTLSIFMELSPGGSIKDQLKAYGALTENVTRKYTRQILEGVHYLHSNMIVHRDIKGANILRDSTGNIKLGDFGASKRLQTICLSGTGMKSVTGTPYWMSPEVISGEGYGRKADIWSVACTVVEMLTEKPPWAEFEAMAAIFKIATQPTNPKLPPHVSDYTRDFLKRIFVEAKLRPSAEELLRHMFVHYH
B2: His-tagged hMEKK2 (polyhistidine-hMEKK2 fusion) (protein)
chain: HHHHHHMDDQQALNSIMQDLAVLHKASRPALSLQETRKAKSSSPKKQNDVRVKFEHRGEKRILQFPRPVKLEDLRSKAKIAFGQSMDLHYTNNELVIPLTTQDDLDKAVELLDRSIHMKSLKILLVINGSTQATNLEPLPSLEDLDNTVFGAERKKRLSIIGPTSRDRSSPPPGYIPDELHQVARNGSFTSINSEGEFIPESMDQMLDPLSLSSPENSGSGSCPSLDSPLDGESYPKSRMPRAQSYPDNHQEFSDYDNPIFEKFGKGGTYPRRYHVSYHHQEYNDGRKTFPRARRTQGTSLRSPVSFSPTDHSLSTSSGSSIFTPEYDDSRIRRRGSDIDNPTLTVMDISPPSRSPRAPTNWRLGKLLGQGAFGRVYLCYDVDTGRELAVKQVQFDPDSPETSKEVNALECEIQLLKNLLHERIVQYYGCLRDPQEKTLSIFMEYMPGGSIKDQLKAYGALTENVTRKYTRQILEGVHYLHSNMIVHRDIKGANILRDSTGNVKLGDFGASKRLQTICLSGTGMKSVTGTPYWMSPEVISGEGYGRKADIWSVACTVVEMLTEKPPWAEFEAMAAIFKIATQPTNPKLPPHVSDYTRDFLKRIFVEAKLRPSADELLRHMFVHYH

Target: GST-MKK4 fusion protein (available from Upstate Biotechnologies, Inc)

Protein | phosphorylation of GST-MKK4 (32P incorporation from [gamma-32P]-ATP, SDS-PAGE, imaging)
B1 | comparable to the activity of purified mouse MEKK2
B2 | comparable to the activity of purified mouse MEKK2, and significantly above the background levels seen with control extracts
